Experimental data as given in paper PMC2841223 (Journal of structural biology, 2009).
Read-outs that look alike come from different tables or passages of the source.

B2: PINCH2 LIM1 domain (PINCH2 6-68), His tag removed (domain or fragment, human, UniProt Q7Z4I7-3 6-68, looked up)
chain: ANAVCQRCQARFSPAERIVNSNGELYHEHCFVCAQCFRPFPEGLFYEFEGRKYCEHDFQMLFA
B3: ILK ankyrin repeat domain (ILK 1-174, from thrombin-cleaved GST-ILK 1-192) (domain or fragment, human, UniProt Q13418 1-174, looked up)
chain: MDDIFTQCREGNAVAVRLWLDNTENDLNQGDDHGFSPLHWACREGRSAVVEMLIMRGARINVMNRGDDTPLHLAASHGHRDIVQKLLQYKADINAVNEHGNVPLHYACFWGQDQVAEDLVANGALVSICNKYGEMPVDKAKAPLRELLRERAEKMGQNLNRIPYKDTFWKGTTR

Legend:
[1] = molecular target: B3; assay: pull-down
[2] = molecular target: B3; assay: pull-down; remark: listed apart in the source
[3] = molecular target: B2; assay: crystal structure
[4] = molecular target: T1, ILK ankyrin repeat domain W110A (human, UniProt Q13418 1-174, W110A); assay: pull-down
T1 sequence (looked up): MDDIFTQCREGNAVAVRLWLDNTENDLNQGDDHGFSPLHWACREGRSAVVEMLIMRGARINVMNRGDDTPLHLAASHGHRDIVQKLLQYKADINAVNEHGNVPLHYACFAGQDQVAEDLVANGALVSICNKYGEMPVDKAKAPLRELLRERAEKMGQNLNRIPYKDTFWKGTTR

[5] = molecular target: B3; assay: pull-down; remark: listed apart in the source

B1: soluble PINCH1 LIM1 domain, His tag removed (domain or fragment)
chain: ASATCERCKGGFAPAEKIVNSNGELYHEQCFVCAQCFQQFPEGLFYEFEGRKYCEHDFQMLFA
IC50 [1]: 2900 nM

B2
IC50 [2]: 4400 nM
IC50 [1]: 2300 nM

B3
stoichiometry N [3]: 1

B4: His-tagged PINCH2 LIM1 (PINCH2 6-68) (domain or fragment, human, UniProt Q7Z4I7-3 6-68, looked up)
chain: ANAVCQRCQARFSPAERIVNSNGELYHEHCFVCAQCFRPFPEGLFYEFEGRKYCEHDFQMLFA
binding result [4]: binds

B5: His-tagged PINCH2 LIM1 R12A (domain or fragment, human, UniProt Q7Z4I7-3 6-68, looked up)
chain: ANAVCQACQARFSPAERIVNSNGELYHEHCFVCAQCFRPFPEGLFYEFEGRKYCEHDFQMLFA
binding result [5]: binds
